One block for each binder: values may come before it.
Columns and labels:
[1] = target: T1, human CD30L (recombinant protein) (human, UniProt P32971 63-234); test: Carterra, human CD30L
T1 construct: also called rhCD30L; TNFSF8
T1 sequence: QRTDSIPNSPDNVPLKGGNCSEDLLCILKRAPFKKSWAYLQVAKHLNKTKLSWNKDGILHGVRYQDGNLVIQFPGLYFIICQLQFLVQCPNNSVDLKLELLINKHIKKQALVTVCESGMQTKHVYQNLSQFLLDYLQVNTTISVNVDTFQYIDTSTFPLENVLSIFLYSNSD

recombinant human CD30L = target: T2, recombinant human CD30L (human, UniProt P32971 63-234, limits assumed); test: biosensor: antibody captured, CD30L bound, competitor rhCD30 added; signal of CD30 association (over 0.15 = non-blocking)
T2 construct: also called rhCD30L; TNFSF8
T2 sequence (looked up): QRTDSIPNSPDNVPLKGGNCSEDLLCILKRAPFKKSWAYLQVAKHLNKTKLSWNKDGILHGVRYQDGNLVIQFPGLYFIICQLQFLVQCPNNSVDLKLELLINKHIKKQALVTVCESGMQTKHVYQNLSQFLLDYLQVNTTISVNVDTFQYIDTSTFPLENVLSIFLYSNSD
Protocol: Briefly, individual anti-human biosensors were loaded with purified IgG (normalized to 10 μg/mL) and a baseline was measured for each biosensor. Biosensors were saturated with biotin and with polyclonal huIgG and a baseline was measured. […] Biosensors were moved to buffer wells to measure the dissociation rate.

[2] = target: T3, recombinant human CD30L protein (human, UniProt P32971 63-234, limits assumed); test: ELISA, hybridoma supernatant 1/50 dil, recombinant human CD30L
T3 construct: also called huCD30L; rhCD30L
T3 sequence (looked up): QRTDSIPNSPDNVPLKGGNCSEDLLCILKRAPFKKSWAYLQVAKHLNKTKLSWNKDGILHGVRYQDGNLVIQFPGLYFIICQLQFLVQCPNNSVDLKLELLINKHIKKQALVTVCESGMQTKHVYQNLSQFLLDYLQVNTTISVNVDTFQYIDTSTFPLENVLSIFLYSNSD

[3] = target: T3, recombinant human CD30L protein; test: ELISA, hybridoma supernatant 1/500 dil, recombinant human CD30L
[4] = target: T3, recombinant human CD30L protein; test: ELISA, hybridoma supernatant 1/5000 dil, recombinant human CD30L
[5] = target: T4, human CD30L expressed on cells (human, UniProt P32971 1-234); test: flow cytometry, hybridoma supernatant 1/50 dil, cells expressing human CD30L
T4 construct: also called huCD30L; TNFSF8
T4 sequence: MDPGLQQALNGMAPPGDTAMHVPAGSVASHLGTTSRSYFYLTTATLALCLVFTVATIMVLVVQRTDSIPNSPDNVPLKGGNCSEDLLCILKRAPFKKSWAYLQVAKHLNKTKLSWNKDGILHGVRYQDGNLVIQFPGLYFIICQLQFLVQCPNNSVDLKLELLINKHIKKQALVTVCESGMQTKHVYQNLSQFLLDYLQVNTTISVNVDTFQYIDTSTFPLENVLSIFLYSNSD

[6] = target: T5, cynomolgus CD30L expressed on cells (cynomolgus, UniProt A0A7N9CVX7 1-234); test: flow cytometry, hybridoma supernatant 1/50 dil, cells expressing cynomolgus CD30L
T5 construct: whole, on cells; also called cyCD30L; cyno CD30L
T5 sequence: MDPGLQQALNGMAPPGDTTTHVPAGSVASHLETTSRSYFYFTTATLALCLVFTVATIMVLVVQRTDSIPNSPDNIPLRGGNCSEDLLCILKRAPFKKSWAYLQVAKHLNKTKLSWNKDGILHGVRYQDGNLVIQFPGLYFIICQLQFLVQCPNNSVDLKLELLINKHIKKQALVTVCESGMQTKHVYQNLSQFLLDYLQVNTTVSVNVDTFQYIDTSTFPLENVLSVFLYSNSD

[7] = target: T6, human CD30L expressed on B16 cells (human, UniProt P32971 1-234); test: cell-based or functional assay
T6 sequence (looked up): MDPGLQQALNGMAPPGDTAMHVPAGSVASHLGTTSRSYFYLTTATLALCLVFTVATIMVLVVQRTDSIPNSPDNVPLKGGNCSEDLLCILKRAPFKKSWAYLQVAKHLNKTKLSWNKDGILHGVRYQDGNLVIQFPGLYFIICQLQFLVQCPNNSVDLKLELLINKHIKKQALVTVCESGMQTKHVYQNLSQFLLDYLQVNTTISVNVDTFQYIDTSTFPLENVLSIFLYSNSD

[8] = target: T7, cynomolgus CD30L expressed on HEK293 cells (cynomolgus, UniProt A0A7N9CVX7 1-234); test: cell-based or functional assay
T7 sequence: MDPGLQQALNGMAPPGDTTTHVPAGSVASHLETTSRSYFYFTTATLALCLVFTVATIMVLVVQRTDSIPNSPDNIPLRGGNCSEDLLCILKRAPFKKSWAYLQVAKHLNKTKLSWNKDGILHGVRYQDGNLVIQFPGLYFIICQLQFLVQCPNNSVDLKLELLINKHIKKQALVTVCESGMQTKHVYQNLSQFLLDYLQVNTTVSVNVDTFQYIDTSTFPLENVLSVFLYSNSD

B1: anti-CD30L antibody clone 64 (antibody, V domains shown)
VH: EVQLVESGGGLVQPGGSLRLSCAASGFTFSNYAMTWVRQAPGKGLEWVSAISGFGGSTYYADSVKGRFTISRDNSKNTLYLQMNSLRAEDTAVYYCAKDHDYYAFDYWGQGTLVTVSS
VL: not shown
notes: Purified recombinant antibody
Kd [1]: 1.57 nM

B2: anti-CD30L antibody clone 64 (antibody, V domains shown)
VH: EVQLVESGGGLVQPGGSLRLSCAASGFTFSNYAMTWVRQAPGKGLEWVSAISGFGGSTYYADSVKGRFTISRDNSKNTLYLQMNSLRAEDTAVYYCAKDHDYYAFDYWGQGTLVTVSS
VL: not shown
notes: purified recombinant IgG, humanized mouse strain #1; also called Clone ID 64
rhCD30L:rhCD30 Blocking (recombinant human CD30L): 0.0633 relative units

B3: anti-CD30L antibody clone 65 (antibody, V domains shown)
VH: EVQLVESGGGLVQPGGSLKLSCAASGFTFSNYAMTWVRQAPGKGLEWVSAISGYGGSTYYAASVKGRFTISRDNSKNTLFLQMNSLRAEDTAVYYCAKDHDYYAFDYWGQGTLVPVSS
VL: not shown
notes: purified recombinant IgG, humanized mouse strain #1; also called Clone ID 65
rhCD30L:rhCD30 Blocking (recombinant human CD30L): 0.0522 relative units

B6: anti-CD30L antibody clone 2 (antibody, V domains shown)
VH: EVQLVESGGGLVQPGRSLRLSCAASGFNFDDYAMHWVRQAPGKGLEWVSGISWRSGNIGYAGSVKGRFTISRDNAKNSLYLQMNSLRPEDSALYYCAKDKGIGFNWNYEGFDYWGQGTLVTVSS
VL: DIQMTQSPSSLSASVGDRVTITCRASQGISNHLAWFQQKPGKAPKSLIYAASSLQSGVPSKFSGSGSGTDFTLTISSLQPEDFATYYCQQYVTYPLTFGGGTKVEIK
Inhibition of IL-8 release in a dual cell assay (B16-huCD30L cells + K299 cells) IC50 [7]: 0.81 nM
Inhibition of IL-8 release in a dual cell assay (HEK293-cyCD30L cells + K299 cells) IC50 [8]: 0.31 nM

B7: anti-CD30L antibody clone 80 (antibody, V domains shown)
VH: EVQLVESGGGLVQPGGSLRLSCEVSGFTFSSYDMHWVRQVTGTGLEWVSSIGIGGDTYYPGSVKGRFTISRENAKNSLYLQMNSLRGGDTGVYYCARGEWDLLWYFMDVWGKGTTVTVSS
VL: DIQMTQSPSSLSASIGDRVTITCRASQGISSWLAWYQQKPGKAPKLLIYAASSLQSGVPSRFSGSGSGTDFTLTISSLQPEDFATYYCQQANSFPLTFGGGTKVEIK
notes: Purified recombinant antibody
Kd [1]: 3.54 nM

The remaining lines, values ahead:

Kd [1]: 1.52 nM
B4: anti-CD30L antibody clone 65 (antibody, V domains shown)
VH: EVQLVESGGGLVQPGGSLKLSCAASGFTFSNYAMTWVRQAPGKGLEWVSAISGYGGSTYYAASVKGRFTISRDNSKNTLFLQMNSLRAEDTAVYYCAKDHDYYAFDYWGQGTLVPVSS
VL: not shown
notes: Purified recombinant antibody

Elisa Binding (OD) [2]: 3.08 OD
Elisa Binding (OD) [3]: 2.65 OD
Elisa Binding (OD) [4]: 0.68 OD
Cell Binding (MFI) [5]: 151 MFI
Cell Binding (MFI) [6]: 67.8 MFI
B5: anti-CD30L antibody Clone 4 (parental, hybridoma) (antibody, V domains shown)
VH: QVQLVESGGGVVQPGRSLRLSCAASGFPFSSYGMHWVRQAPGKGLEWVTFIWFDGNNKDYADSVKGRFSVSRDNSKNTLYLQMNSLRADDTAVYYCARNGVYYGSGAYVDYWGQGTLVTVSS
VL: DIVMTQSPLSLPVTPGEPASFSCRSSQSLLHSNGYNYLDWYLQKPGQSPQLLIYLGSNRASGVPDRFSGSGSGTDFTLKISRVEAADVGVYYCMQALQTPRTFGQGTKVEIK
notes: Tested as diluted hybridoma supernatant from mice with a humanized immunoglobulin locus

Inhibition of IL-8 release in a dual cell assay (B16-huCD30L cells + K299 cells) IC50 [7]: 0.89 nM
Inhibition of IL-8 release in a dual cell assay (HEK293-cyCD30L cells + K299 cells) IC50 [8]: 0.41 nM
B8: anti-CD30L antibody clone 2 germlined (antibody, V domains shown)
VH: EVQLVESGGGLVQPGRSLRLSCAASGFNFDDYAMHWVRQAPGKGLEWVSGISWRSGNIGYADSVKGRFTISRDNAKNSLYLQMNSLRAEDTALYYCAKDKGIGFNWNYEGFDYWGQGTLVTVSS
VL: DIQMTQSPSSLSASVGDRVTITCRASQGISNHLAWFQQKPGKAPKSLIYAASSLQSGVPSRFSGSGSGTDFTLTISSLQPEDFATYYCQQYVTYPLTFGGGTKVEIK

From patent publication US20250340660A1 (published 2025)
